# Test results published in article PMC9055814.
# B1: SlGA3ox2 probe P2 (dsDNA)
# DNA 1: CAATTATTTGTCAATATTTGGTTAAATACTTGTTTAATAGTATAC
# DNA 2: GTATACTATTAAACAAGTATTTAACCAAATATTGACAAATAATTG
# B2: SlGA3ox1 probe P5 (dsDNA)
# DNA 1: TTAACAAAGACAAATTAGTTGATTGGTTAAAGACAATCAATATGT
# DNA 2: ACATATTGATTGTCTTTAACCAATCAACTAATTTGTCTTTGTTAA
# B3: SlGA3ox2 probe P4 (dsDNA)
# DNA 1: CTATAATTGAATTGAATTCAGTTAACTGTCGAAATTGGAATGGTA
# DNA 2: TACCATTCCAATTTCGACAGTTAACTGAATTCAATTCAATTATAG
# B4: SlGA3ox2 probe P3 (dsDNA)
# DNA 1: CCCATACAACTTTGCGATGTTAATGGTTATAACTATAAAGGGAGA
# DNA 2: TCTCCCTTTATAGTTATAACCATTAACATCGCAAAGTTGTATGGG
# B5: SlGA3ox2 probe P1 (dsDNA)
# DNA 1: GCACTTAAGATCATAATTAATGATTTCAGTTACCGCAATAAAATG
# DNA 2: CATTTTATTGCGGTAACTGAAATCATTAATTATGATCTTAAGTGC
# Target: SlGAMYB2-GST (Solanum lycopersicum, UniProt A0A3Q7H2U6 1-504)
# Test: EMSA
row,Binder,binding result
1,B1,binds
2,B2,no binding
3,B3,no binding
4,B4,binds
5,B5,no binding
